# Experimental data as given in article PMC3282769, “New Insight into the Transcarbamylase Family: The Structure of Putrescine Transcarbamylase, a Key Catalyst for Fermentative Utilization of Agmatine” (PLoS ONE, 2012).
# Target: the molecule itself
# Assay: SEC; analytical size exclusion chromatography, Superdex 200HR 5/150 GL, 20 µl of 10 mg/ml protein injected, 24°C, 50 mM Hepes pH 7.5, 0.25 M NaCl; column calibrated with protein standards
row,Protein,stoichiometry N
1,"putrescine transcarbamylase (PTC) from Enterococcus faecalis, wild type (enzyme, putrescine transcarbamylase, Enterococcus faecalis, gene ef0732, UniProt Q837U7; the final PTC-PAPU model has residues 1 to 340 in each chain; also called wild-type PTC; WT) not shown",3
2,"Enterococcus faecalis PTC lacking the C-terminal helix (helix 13), amino acids 1-317 (domain or fragment, putrescine transcarbamylase, Enterococcus faecalis SD10 genomic DNA, gene ef0732, amino acids 1-317 followed by a stop codon (stop codon at position 318); Cloned in pNIC28-Bsa4; Most of the protein eluted as hexamers, a small fraction as monomers; also called truncated PTC; Trun; source: E. coli BL21 (DE3) co-transformed with pGroESL, purified (Ni-based chromatography)) not shown",6
